Assay: soluble on expression in E. coli; label from the status in PepcDB or PDB records

Row | Sequence | soluble on expression in E. coli
1 | DLRGDLHMHTDYSEGAESLETMVEKAESMGYEYIAVTDHSRSQRIANGMDIETLKEQWKEIKSLSKRFRIKVLRGSEVEILKDGSLDYPDEILKELDVVVGAVHSGFAASEREMTGRIITALENKHLDILAHPSGRLLGKREAYAVNFGKVFEAAAENGKVMEINCQPSRLDLNDELIFRAKDYELKFCISTDSHSVSDLASMRYGLGQARRSWLEKEDIVNTYPYSRLKEVFKKLRD | not soluble
2 | EVPDYLCCNITLEIFRDPVISPSGVTYERAAILEHLKKVGKFDPITREKIDPANLVPNLAIKEAVAAYLEKHVWAYKMGC | soluble
3 | GIVNVPNPNNTKFQELARFAIQDYNKKQNAHLEFVENLNVKEQVVAGIMYYITLAATDDAGKKKIYKAKIWVKEWEDFKKVVEFKLV | soluble
4 | MAIKSVVVGKGTLTLAMKDAHTQALDFSAQVTSAKFQPDSSTGDSITVLSGETIPGKKSFGGHLEIDFLQDFSTNGIVDFSYKNAGKEADFVYTPNTEAKAKLQGTVIIAPLEVGDDVEAIAKSAAKWVVPSLPTFTPGG | not soluble
5 | MNEQIRTILAEDGTKTSKIRKLLLLGLTHREIADLVTRGNRGFVWNVYKRMRDEGLIVSAGTPTATTTPELDYSFRRKFGVEIEAYNCTCQRLVRELTEAGIEVASERYNHDLRPHWKLVTDSSLNGNDTFELVSPILEGEDGLEKLERVCWVLDSCNVKINGSCGLHVHMNAEDFNITTWRNLLLSYKHAEAEIDKFMPASRRGGSNTYCGSLIQFPDERIRSARNIRELQGLFPSRYMKVNLQAYSRHRTVEFRQHSGTISFTKIENWVCFLDRMITFASVGSLPAGIRLEDFPFLGEKQKLYYKLRTKKLAV | not soluble
6 | MPGFDYKFLEKPKRRLLCPLCGKPMREPVQVSTCGHRFCDTCLQEFLSEGVFKCPEDQLPLDYAKIYPDPELEVQVLGLPIRCIHSEEGCRWSGPLRHLQGHLNTCSFNVIPCPNRCPMKLSRRDLPAHLQHDCPKRRLKCEFCGCDFSGEAYESHEGMCPQESVYCENKCGARMMRRLLAQHATSECPKRTQPCTYCTKEFVFDTIQSHQYQCPRLPVACPNQCGVGTVAREDLPGHLKDSCNTALVLCPFKDSGCKHRCPKLAMARHVEESVKPHLAMMCALVSRQRQELQELRRELEELSVGSDGVLIWKIGSYGRRLQEAKAKPNLECFSPAFYTHKYGYKLQVSAFLNGNGSGEGTHLSLYIRVLPGAFDNLLEWPFARRVTFSLLDQSDPGLAKPQHVTETFHPDPNWKNFQKPGTWRGSLDESSLGFGYPKFISHQDIRKRNYVRDDAVFIRAAVELPRKILS | soluble
7 | MGSDKIHHHHHHASSCGDECPVEQPYSVRVSVKDKNYLNISQFPQLSQVDENLPFRTYAGTLYYALYDASTGALIRESAVVSTEGEEKEYTLTFPGVPDGDYKLAVWGNLTTDYPAGILHQDGKEHTDIYVTSGDLHFSPDYQTEELTLERTKGKLLLLCSNFPSEITRIEQNVSHVYQSTDAGLNYSGSTQVDKNVPFTSVLETLLAPTSAEGHSKLTLTFYTGGTRASETPYLKLPVMEMDMRRNEITAVSIDYNTSEGIWEIKMFIRGEWITIHRLDIF | not soluble
8 | MKSKYEPLFDKVELPNGVELRNRFVLAPLTHISSNDDGTISDVELPYIEKRSQDVGITINAASNVSDVGKAFPGQPSIAHDSNIEGLKRLATAMKKNGAKALVQIHHGGAQALPELTPDGDVVAPSPISLKSFGQKQEHSAREMTNEEIEQAIKDFGEATRRAIEAGFDGVEIHGANHYLIHQFVSPYYNRRNDVWANQYKFPVAVIEEVLKAKEAYGNKDFIVGYRLSPEEAESPGITMEITEELVNKISHMPIDYIHVSMMDTHATTREGKYAGQERLPLIHKWINGRMPLIGIGSIFTADEALDAVENVGVDLVAIGRELLLDYQFVEKIKDGREDEIINYFDPEREDNHHLTPNLWHQFNEGFYPLPRKDK | not soluble
9 | MVIRRCEKMEEETWKLKIGMCIQAKDFYSKRTDCSVHRPDVGGGLITEGNGYRVVVHDQCEEPNPFIIATTKQTHFGVTHSYIEFSNSNTGAPENIPDCSKHILISVYCDQEASGLDFHTLKYVESNYLHITVKYDTSCINHLGVNYSFMNECERKLTSIYETDTLTCGAKDIQTRDKYLKTCTNTKFDRSVYKTHMQKSKILHVKTELE | not soluble
10 | MGSDKIHHHHHHMLSTVFRRTMATGRHFIAVCQMTSDNDLEKNFQAAKNMIERAGEKKCEMVFLPECFDFIGLNKNEQIDLAMATDCEYMEKYRELARKHNIWLSLGGLHHKDPSDAAHPWNTHLIIDSDGVTRAEYNKLHLFDLEIPGKVRLMESEFSKAGTEMIPPVDTPIGRLGLSICYDVRFPELSLWNRKRGAQLLSFPSAFTLNTGLAHWETLLRARAIENQCYVVAAAQTGAHNPKRQSYGHSMVVDPWGAVVAQCSERVDMCFAEIDLSYVDTLREMQPVFSHRRSDLYTLHINEKSSETGGLKFARFNIPADHIFYSTPHSFVFVNLKPVTDGHVLVSPKRVVPRLTDLTDAETADLFIVAKKVQAMLEKHHNVTSTTICVQDGKDAGQTVPHVHIHILPRRAGDFGDNEIYQKLASHDKEPERKPRSNEQMAEEAVVYRNLM | not soluble
11 | TGKIDGILSIGVDVTERVKWRKQIEASGARLKSMIDQTPAPTLVLMGDNLVIEQVNTSMLKLLGHEENIVGIPLLTLMPELKGQYIWEQVEKVYREGIPFDQSEVRVSHKRTGMMEDYYYNIAYRPLKED | not soluble
12 | MGSDKIHHHHHHMRVFIIHLSPKTCQNFSLKETHITPLLESLKLQGISYEIFDAIYSKISPTQLHPLILEHLHPSFMVEDLWAFCKNKKHPPCALKNFFYAIKHCGKRMGFGELGCYASHYSLWQKCIELNEAICILEDDIIIKDRFKESLEFCRHHINELGYIRLMHLEENVAKQKTPVKGVSQILNFKDGIGTQGYVLAPKAAQKLLKYSAKEWVMPIDCVMDRHYWHGVKNYVLEEFAIACDGMNAQNSNTEKQRPKKLPLSIRIGRSLHKSTIKFLDKVFRYSPKLIRIGKH | not soluble
13 | MSLMKQNPILITGGTGTVGSRIASRLIKLGYRVRIASRKKGALADAEYVYFNWKYASSFTPALEQVKQIYLVAPVGVFDPAPYVLPFLKEAKRLGAKRVVMQSASVVSENGPVFGALHQAVREFPEWTVLRPSYFMQNFINVQHRMSIQTEGRITTASGEGKLGFIDADDIAETAVRALIDDVPHQTHHILTGPEALSYAEAAEIIGAAAGRRVEHVSISRSELQHKMEAGGLPADYAHFMAKLDEAISHGAEHRVTDTVKRVTGKEPRSLSEFAAAHAAYWTSFWTEEGGSHHHHHH | soluble
14 | GAMEDKVDAIREAIARNPQEIFQYVRLSQVKRDDKVLGYRVSPGKDPVLFESIGLQDGDMAVALNGLDLTDPNVMNTLFQSMNEMTEMSLTVERDGQQHDVYIQF | soluble
15 | MLAARGFFKSTRISNRFFAKKSVKNLTNDDVDVLTNPSDEYVDSFMKYHGNGRAVFKREDLAQWRDSFPDYKFKVISLKGAPRVIATAHLCTFRPIDPSINKSIMFMGFGWIDPGFRSPGTAKLQNDMCRVEMDREDDNIVSQINQPAKNFWHKLSKRKEFLDLGHKAGDVGYKTFYSAHDVVLPENLDLSGITVKNAREVPKRDIINYDQTIHPYHREKYIISHMYDRDGFGKVAYDEEGNVIGIGQAVIYENRKDCNLGPIYAENTRVAQAMFAEILKDIKASEKTVVSFEVRSGQLNKDSFCWLTPFLTHKPTRSHVCNLVYTDCVPENIDFSKVYSPTHAQLFMV | not soluble
16 | MNEKVFRDPVHNYIHIDNPLIYDLINTKEFQRLRRIKQVPTTAFTFHGAEHSRFSHCLGVYEIARRVTAIFEEKYADIWNKDESLVTMTAALLHDIGHGAYSHTFEVLFHTDHEAFTQEIITNPETEINAILVRHAPDFPDKVASVINHTYPNKQVVQLISSQIDCDRMDYLLRDSYFSAANYGQFDLMRILRVIRPVEDGIVFEHSGMHAVEDYIVSRFQMYMQVYFHPASRAVELILQNLLKRAQHLYPEQQAYFQKTAPGLIPFFEKKANLADYIALDDGVMNTYFQVWMASEDHILSDLASRFINRKILKSVTFDQDSQGELERLRQLVESVGFDPDYYTGIHINFDLPYDIYRPELENPRTQIEMMQKDGSLAELSQLSPIVKALTGTTYGDRRFYFPKEMLELDDLFAPSKETFMSYISNGHFHFSQ | not soluble
17 | MTRAKQIILWASLSAMPLIAQASERSDDEIKALVYQAILERPEIILQAVEQLQQAEEAAQAASAHAALTENRDSLFNDPNAPVLGNPEGDVTVVEFFDYNCPYCRRAMAEVQGLVDADPNVRLVYREWPILGEGSDFAARAALAARQQGKYEAFHWALMGMSGKANETGVLRIAREVGLDTEQLQRDMEAPEVTAHIAQSMALAQKLGFNGTPSFVVEDALVPGFVEQSQLQDAVDRARKAAAK | not soluble
18 | MGSDKIHHHHHHMIDFIYSFQNMEQINSSSWHLPTQYFLNRNNKMEATNTHDIQGLSARKTVEAYLAAFAEGKLDDIVSLLDDNVVWHIDGEPGVSTVGLLQGPGRVRRWLQNFPQNFRPLDFSISDIIAHNDSVLVLGRFRHTVLSTGNAVGSDMIIHFKVSGSKITRYQMFEDSALLSRAFDASDEWQLQQVRINGTLYRYRDIGEGPTLIFAHGLFANHEIFSAQFQILSKSYRCIVLDMPGHGLSEYDPAGWKLDDLSRDLALMIQELSLGKVTFIGQSQGGMVAIRLAAHYPQLVSGLVLIGTSARAEFPERLQNWHRQRDILLTGSEHAREDLFKKIQSHINNEAWLQNNQGEAARERRIMLSHNRTGLALALDAAVFERGDITELLADISAPTLIICGEQDTATPVELSQEIATLIADASILILAKTGHHPPTEAAQAVTAAIAEFLKLECSNHH | not soluble
19 | GSEPYSLTAQQSSLIREDKSNAKLWNEVLASLKDRPASGSPFQLFLSKVEETFQCICCQELVFRPITTVCQHNVCKDCLDRSFRAQVFSCPACRYDLGRSYAMQVNQPLQTVLNQLFPGYGNGR | soluble
20 | GMEYQLQQLASLTLVGIKETYENGRQAQQHIAGFWQRCYQEGVIADLQLKNNGDLAGILGLCIPELDGKMSYMIAVTGDNSADIAKYDVITLASSKYMVFEAQGAVPKAVQQKMEEVHHYIHQYQANTVKSAPFFELYQDGDTTSEKYITEIWMPVKG | soluble
21 | MKGAARLAPGRPSPAPAWETSDPYAAALRSGHGPLYLRRTDGWLLPLEVERWCARADAVDLDVLDRCEGAVLDVGCGPGRLVAELAARGRTVLGIDVSEAAVTRTVRLGGQSLRRSVFEPLPGEGRWDTVLLMDGNVGIGGDPRTLLGRVAALLAPGGLLIAETAGSDIDERAHVQVVDVTDGDAAGSPFPWARIGTPALLGHARDTGWRPAAQWTSGERRFVALRSSRSASSSAEPPNSTAVTSSQRARKPSADSPVTPWLEHHHHHH | not soluble
22 | YFSAICQARKNVYIETPYFIPDESLLKAIKSAALSGVDVRIIFPKIADHKIVNIASYSYFEEILRAGGKVYLYNKGFIHSKVVIIDDKIASAGTANMDLRSFMLNFEVNAFIYDEEVIRVMTDDFFEDLSYCEELNLEVFKNRNIIQKIKESVARLFSPIL | soluble
